Literature values in PMC4526808.
Read-outs that look alike come from different tables or passages of the source. Blank lines part the entries; values can stand above or below the substance they belong to.

Tests used:
PKA RIIα D/D domain [1] = target: PKA RIIα D/D domain (UniProt P13861)
PKA RIα D/D domain [2] = target: PKA RIα D/D domain (UniProt P10644)
PKA RIIα D/D domain [3] = target: PKA RIIα D/D domain (UniProt P13861); remark: listed apart in the source
PKA RIα D/D domain [4] = target: PKA RIα D/D domain (UniProt P10644); remark: listed apart in the source
PKA RIIα D/D domain [5] = target: PKA RIIα D/D domain (UniProt P13861); remark: listed apart in the source

UniProt P13861, sequence (P13861 2-45): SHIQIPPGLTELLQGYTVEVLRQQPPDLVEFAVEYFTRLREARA
UniProt P10644, sequence (P10644 1-61): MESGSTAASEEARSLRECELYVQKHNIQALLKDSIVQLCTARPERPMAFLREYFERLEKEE

- Kd (PKA RIIα D/D domain [1]): 0.4 nM
Substance: AKAP-is

- Kd (PKA RIα D/D domain [2]): 1300 nM
- Kd (PKA RIIα D/D domain [3]): 2.2 nM
Substance: Ht31

- Kd (PKA RIα D/D domain [4]): 1 nM
- Kd (PKA RIIα D/D domain [5]): 1800 nM
Substance: RIAD
